Patent publication US20060200330A1, “Methods and systems for modeling and simulating biochemical pathways” (KOREA INSTITUTE OF SCIENCE AND TECHNOLOGY, priority 2005, published 2006)
Like-named read-outs stand apart in the source and are kept apart here.

Key:
[1] = test system: MEK; test: Western blot of MEK activation (anti-phosphorylated MEK) in PC12 cells; format: cell-based
Experimental: (§1) In order to confirm the simulation, PC12 cells treated with EGF (100 ng/ml) were used to measure the time data tracking the activation levels of MEK and ERK, respectively. […] Western blot analysis was performed as follows. PC12 cells were treated with 100 ng/ml EGF for 0 to 120 min. Dissolved protein samples were reacted by using anti-phosphorylated MEK antibodies and anti-diphosphorylated ERK antibodies. Then, the resultant was reacted with anti-HRP (horse radish peroxidase)-conjugated secondary antibodies and confirmed the presence of a band via ECL chemoluminscence.
(§2) PC12 cells treated with EGF or nerve growth factor (NGF) were examined to evaluate the efficacies of PD09859 (10 μM) and U0126 (0.01-10 μM) in respect of MEK and ERK activation. Western blot analysis was performed as follows. PC12 cells treated with PD09859 and U0126 were treated with 100 ng/ml of EGF or NGF for 5 min. Then, the resulting protein sample was separated by performing SDS/PAGE, and then blotted by using anti-phosphorylated MEK and anti-diphosphoryated ERK antibodies. Again, the resultant was blotted by using anti-HRP (horseradish peroxidase) conjugated secondary antibodies and identified in bands by ECL chemo-luminescence.

[2] = test system: ERK; test: Western blot of ERK activation (anti-diphosphorylated ERK) in PC12 cells; format: cell-based; conditions: PC12 cells treated with 100 ng/ml EGF for 0 to 120 min
Experimental: as §1, §2

[3] = target: EGFR; conditions: cited from earlier work

B1: EGF: peptide growth factor composed of 55 amino acids in a long chain (protein, UniProt P01133 23-1207, looked up)
Pro-epidermal growth factor: PQHWSCPEGTLAGNGNSTCVGPAPFLIFSHGNSIFRIDTEGTNYEQLVVDAGVSVIMDFHYNEKRIYWVDLERQLLQRVFLNGSRQERVCNIEKNVSGMAINWINEEVIWSNQQEGIITVTDMKGNNSHILLSALKYPANVAVDPVERFIFWSSEVAGSLYRADLDGVGVKALLETSEKITAVSLDVLDKRLFWIQYNREGSNSLICSCDYDGGSVHISKHPTQHNLFAMSLFGDRIFYSTWKMKTIWIANKHTGKDMVRINLHSSFVPLGELKVVHPLAQPKAEDDTWEPEQKLCKLRKGNCSSTVCGQDLQSHLCMCAEGYALSRDRKYCEDVNECAFWNHGCTLGCKNTPGSYYCTCPVGFVLLPDGKRCHQLVSCPRNVSECSHDCVLTSEGPLCFCPEGSVLERDGKTCSGCSSPDNGGCSQLCVPLSPVSWECDCFPGYDLQLDEKSCAASGPQPFLLFANSQDIRHMHFDGTDYGTLLSQQMGMVYALDHDPVENKIYFAHTALKWIERANMDGSQRERLIEEGVDVPEGLAVDWIGRRFYWTDRGKSLIGRSDLNGKRSKIITKENISQPRGIAVHPMAKRLFWTDTGINPRIESSSLQGLGRLVIASSDLIWPSGITIDFLTDKLYWCDAKQSVIEMANLDGSKRRRLTQNDVGHPFAVAVFEDYVWFSDWAMPSVMRVNKRTGKDRVRLQGSMLKPSSLVVVHPLAKPGADPCLYQNGGCEHICKKRLGTAWCSCREGFMKASDGKTCLALDGHQLLAGGEVDLKNQVTPLDILSKTRVSEDNITESQHMLVAEIMVSDQDDCAPVGCSMYARCISEGEDATCQCLKGFAGDGKLCSDIDECEMGVPVCPPASSKCINTEGGYVCRCSEGYQGDGIHCLDIDECQLGEHSCGENASCTNTEGGYTCMCAGRLSEPGLICPDSTPPPHLREDDHHYSVRNSDSECPLSHDGYCLHDGVCMYIEALDKYACNCVVGYIGERCQYRDLKWWELRHAGHGQQQKVIVVAVCVVVLVMLLLLSLWGAHYYRTQKLLSKNPKNPYEESSRDVRSRRPADTEDGMSSCPQPWFVVIKEHQDLKNGGQPVAGEDGQAADGSMQPTSWRQEPQLCGMGTEQGCWIPVSSDKGSCPQVMERSFHMPSYGTQTLEGGVEKPHSLLSANPLWQQRALDPPHQMELTQ
modifications: Pro-epidermal growth factor
notes: peptide growth factor composed of 55 amino acids in a long chain
[1]; PC12 cells treated with 100 ng/ml EGF for 0 to 120 min
  MEK activation, time course: temporary activation
[1]; PC12 cells treated with EGF 100 ng/ml for 5 min
  MEK activation: became still higher
[2]
  ERK activation, time course: temporary activation
[3]; EGFR high affinity binding, read-out: dissociation constant (Kd), interaction with a high affinity
  Kd: < 1 nM
[3]; EGFR low affinity binding, read-out: dissociation constant (Kd), interaction with a low affinity
  Kd: 6 to 12 nM
